The target of this test is receptor binding domain (RBD) of the wildtype (WT) SARS-CoV-2 spike protein (SARS-CoV-2, wildtype (sequence as in …)).

From doi:10.1101/2023.01.10.523494 (bioRxiv, 2023) come the findings set out here.

Positions count from the first letter of the chain named.

B1: mRBD18 (antibody, V domains shown)
VH: QIQLVQSGPELKKPGETVKISCKASGYTFTDYPMHWVQQAPGKGFKWMGMIYTDTGEPTYAEEFKGRFAFSLETSASTAYLQINNLKNEDTATYFCVRWAGYFDYWGQGTTLTVSS
VL: DIVLTQSPASLAVSLGQRATISCRASESVDSYGNSFMDWYQQKPGQPPKLLIYRASNLESGIPARFSGSGSRTDFTLIINPVEADDVATYYCQQSNEHPLTFGAGTKLELK
Turning to B1, the binding result was “binds”.

B2: mRBD14 (antibody, V domains shown)
VH: EVKLVESGGGLVQPGGSLSLSCAASGFTFTDYYMSWVRQPPGKALEWLGFIRNKANGYTTEYSASVKGRFTISRDNSQSILYLQMNALRAEDSATYYCARYIRTGWYFDVWGTGTTVTVSS
VL: DIVMTQSQKFMSTSVRDRVSITCKASQNVRTAVAWYQQKPGQSPKALIYLASNRHTGVPDRFTGSGSGTDFTLTISNVQSEDLADYFCLQHWNYPWTFGGGTKLEIK
B2: the binding result was “binds”.

B3: hRBD6 (antibody, V domains shown)
VH: QVQLQQWGAGLLKPSETLSLSCAVYGGAFSDYYWSWIRQPPGKGLEWIGEIDLSGSTNYNPSLKSRVTISVDTSKNQFSLKLISVTAADTAVYYCARTHLIGYCSGGSCYSGPDPSNWFDPWGQGTLVTVSS
VL: SSELTQDPAVSVALGQTVRITCQGDSLRSYYASWYQQKPGQAPVLVIYGKNNRPSGIPDRFSGSSSGNTASLTITGAQAEDEADYYCNSRDTSGHHPVFGGGTKLTVL
Take B3: the binding result is given as “binds”.

B4: mRBD11 (antibody, V domains shown)
VH: QVQLQQSGAELARPGASVKLSCKASGYTFISNGISWVKQRTGQGLEWIGEIYPRNGNTYYNEKFKGKATLTADKSSSTAYMELRSLTSEDSAVFFCARDYYYGNFDYWGQGTTLTVSS
VL: NIVLTQSPASLAVSLGQRATISCRASESVDSYGNSFMHWYQQKPGQPPKLLIYLASNLESGVPARFSGSGSRTDFTLTIDPVEADDAATYYCQQNNEDPYTFGGGTKLEIK
As for B4, the binding result is reported as “binds”.

B5: mRBD16 (antibody, V domains shown)
VH: QIQLVQSGPELKKPGETVKISCKASGYTLTEYPMHWVKQAPGKGFKWMGMIYTDTGEPTYAEEFKGRFAFSLETSASTAYLQINNLKNEDTATYFCVRAGPSFAMDYWGQGTSVTVSS
VL: B4 VL
For B5, the binding result is given as “binds”.

B6: mRBD21 (antibody, V domains shown)
VH: B5 VH with L29F, E31K, F68C, A99W, P101G, F103Y, M105L
VL: B1 VL with D38H, I78T, H98D
Consider B6, for which the binding result is on record as “binds”.

B7: mRBD22 (antibody, V domains shown)
VH: QIQLVQSGPELKKPGETVKISCKASGYTFTEYPMHWVKQAPGKGFKWMGMIYTDTGEPTYAEEFKGRFAFSLETSASTAYLQINNLKNEDTATYFCVRGGYYYFDYWGQGTTLTVSS
VL: B4 VL with Y100W
As to B7, the binding result is “binds”.

B8: mRBD20 (antibody, V domains shown)
VH: B5 VH with F103Y
VL: B4 VL with V13M, Q42L
For B8, the binding result was “binds”.

B9: mRBD19 (antibody, V domains shown)
VH: B5 VH with L29F, A99G, S102Y, F103Y
VL: B4 VL with Y100W
On to B9, for which the binding result is recorded as “binds”.

B10: mRBD15 (antibody, V domains shown)
VH: B5 VH with E10D, L29F, K46Q, A92S, F103Y
VL: B4 VL with L58V, Q93H, N95I
On to B10, for which the binding result is given as “binds”.

B11: hRBD10 (antibody, V domains shown)
VH: EVQLVESGGGLVQPGGSLRLSCSASGFTFTTYNMNWVRQAPGKGLEWVSYISSSSSTIYYADSVEGRFTISRDNAKNSLYLQMNSLRDEDTAVYYCARGVGATSYYYHGMDVWGQGTTVSVSS
VL: DIQMTQSPSSLSASVGDRVTITCRASQSIYSYLNWYKQKAGKAPKLLIYAASSLQSGVPSRFSGSGSGTDFTLTIISLQPEDFATYYCQQSYSTPPTFGQGTKVEIK
On to B11, for which the binding result was “binds”.

B12: hRBD1 (antibody, V domains shown)
VH: QVQLVQSGSELKKPGASVKVSCKASGNTLTNHALNWVRQAPGQGLEWMGWINTNTGIPTYAQGFTGRFVFSLDTSVSTAYLQISSLKAEDTAVYYCARVGQTAIAALDDAFDIWGQGTMVTVSS
VL: not shown
In the case of B12, the binding result is on record as “binds”.

B13: hRBD2 (antibody, V domains shown)
VH: B12 VH with N27Y, L29F, T30S, H32Y, L34I, I57H, T74A, S77T, Q101R
VL: not shown
For the molecule B13, the binding result is on record as “binds”.

B14: mRBD25 (antibody, V domains shown)
VH: QVQLQQSGPELVKPGASVKISCKASGYAFSNSWMNWVKQRPGKGLEWIGRIYPGDGDTNYNGKFKGKATLTADKSSSTAYMQLSSLTSEDSAVYFCANYYGDYWGQGTTLTVSS
VL: QIVLTQSPALMSASPGEKVTMTCSASSSVSYMYWYQQKPRSSPKPWIYLTSNLASGVPARFSGSGSGTSYSLTISSMEAEDAATYYCQQWSSNPYTFGGGTKLEIK
Consider B14, for which the binding result was “binds”.

B15: mRBD3 (antibody, V domains shown)
VH: QVQLQQPGAELVMPGTSVKLSCKASGYIFTSYWMHWVKQRPGQGLEWIGEIDPSDNYTNYNQKFKGKSTLTVDKSSSTAYMQLSSLTSEDSAVYYCARGGLYYYGSSYDAMDYWGQGTSVTVSS
VL: DIVMTQAAPSVPVTPGESVSISCRSSKSLLHSNGNTYLYWFLQRPGQSPQLLIYRMSNLASGVPDRFSGSGSGTAFTLRISRVEAEDVGAYYCMQHLEYPFTFGSGTKLEIK
B15: the binding result was “binds”.

B16: mRBD4 (antibody, V domains shown)
VH: QVQLQQPGAELVMPGASVKLSCKASGYTFTSYWMHWVKQRPGQGLEWIGEIDPSDSYTNYNQKFKDKSTLTVDKSSSTAYMQLSSLTSEDSAVYYCARGGVYYYGSSHYFDYWGQGTTLTVSS
VL: B15 VL with L51F, A90V
B16: the binding result is “binds”.

B17: mRBD23 (antibody, V domains shown)
VH: QVQLQQPGAELVRPGSSVKLSCKASGYTFTSYWMHWVKQRPIQGLEWIGNIDPSDSETHYNQKFKDKATLTVDKSSSTAYMQLSSLTSEDSAVYYCTRPGSLRSRGWYFDVWGTGTTVTVSS
VL: B15 VL with A90V, F101Y, S105G
B17: the binding result was “binds”.

B18: mRBD24 (antibody, V domains shown)
VH: EVQLQQSGPDLVKPGASVKISCKASGYTFTDYYMNWVKQSHGKSLEWIGDINPNNGGTYYNQKFKGKATLTVDKSSSTAYMELRSLTSEDSAVYYCARQLRRWGQGTLVTVSA
VL: not shown
Consider B18, for which the binding result is listed as “binds”.

B19: hRBD11 (antibody, V domains shown)
VH: QVQLQESGPGLVKPSQTLSLTCTVSGGSISSGGYYWSWIRQHPGKGLEWIGYIFYSGSTYYNPSLKSRVIISVDTSKNQFSLKLSSVTAADTAAYYCARVNRVYGSGSYSLDPWGQGTLVTVSS
VL: QSALTQPASVSGSPGQSITISCTGTSRDVGDYDYVSWYQQHPGKAPKLMIYEGSERPSGVSNRFSGSKSGNTASLTISGLQAEDEADYYCCSYTGSSTSFLFGTGTKVTVL
In the case of B19, the binding result is “binds”.

B20: mRBD5 (antibody, V domains shown)
VH: QVQLQQPGAELVKPGASVKVSCKASGYTFTSYWMHWVKQRPGQGLEWIGRIHPSDSDTNYNQKFKGKATLTVDKSSSTAYMQLSSLTSEDSAVYYCAIDWDGDYWGQGTTLTVSS
VL: DIVMSQSPSSLAVSAGEKVTMSCKSSQSLLNSRTRKNYLAWYQQKPGQSPKLLIYWASTRESGVPDRFTGSGSGTDFTLTISSVQAEDLAVYYCKQSYNLWTFGGGTKLEIK
On to B20, for which the binding result was “binds”.

B21: mRBD6 (antibody, V domains shown)
VH: B20 VH with I98M, G102V
VL: B20 VL with W101L, G105A, I111L
In the case of B21, the binding result is recorded as “binds”.

B22: mRBD7 (antibody, V domains shown)
VH: QVQLKQSGAELVRPGASVKLSCKASGYTFTDYYINWVKQRPGQGLEWIARIYPGSGNTYYNEKFKGKATLTAEKSSSTAYMQLSSLTSEDSAVYFCARYPLYDYDEEDYFDYWGQGTTLTVSS
VL: DIQMTQTTSSLSASLGDRVTISCRASQDISNYLNWYQQKPDGTVKLLIYYTSRLHSGVPSRFSGSGSGTDYSLTISNLEQEDIATYFCQQGNTLPYTFGGGTKLEIK
Regarding B22, the binding result is reported as “binds”.

B23: mRBD10 (antibody, V domains shown)
VH: QVQLKQSGAELVRPGASVKLSCKASGYTFTDYYINWVKQRPGQGLEWIARIYPGSGNTYYNEKFKGKATLTAEKSSSTAYMQLSSLTSEDSAVYFCARDYGSSYVDYFDYWGQGTTLTVSS
VL: B22 VL with Y96L, G100A, I106L
Regarding B23, the binding result was “binds”.

B24: mRBD12 (antibody, V domains shown)
VH: QVQLQQSGAELARPGASVKLSCKASGYTFTSYGISWVKQRTGQGLEWIGEIYPRSGNTYYNEKFKGKATLTADKSSSTAYMEVRSLTSEDSAVYFCAREGGYGYVMDYWGQGTSVTVSS
VL: B22 VL with L73F, Y96W
For B24, the binding result is listed as “binds”.

B25: mRBD17 (antibody, V domains shown)
VH: B5 VH
VL: B22 VL with I83F
Turning to B25, the binding result is recorded as “binds”.
